In patent US20100068208A1, “Degranulation inhibitor” (priority 2005, published 2010):
Where no end group is shown, it is not given here.

T1: TGR12-GFP (fused protein of human TGR12 and GFP, encoded by the DNA of SEQ ID NO: 45), stably expressed on … (human, UniProt Q96LB1 1-330)
T1 construct: also called TGR12-GFP expression CHO cell line; not shown: GFP (Wako Pure Chemical) fused after the C-terminus of TGR12
T1 sequence: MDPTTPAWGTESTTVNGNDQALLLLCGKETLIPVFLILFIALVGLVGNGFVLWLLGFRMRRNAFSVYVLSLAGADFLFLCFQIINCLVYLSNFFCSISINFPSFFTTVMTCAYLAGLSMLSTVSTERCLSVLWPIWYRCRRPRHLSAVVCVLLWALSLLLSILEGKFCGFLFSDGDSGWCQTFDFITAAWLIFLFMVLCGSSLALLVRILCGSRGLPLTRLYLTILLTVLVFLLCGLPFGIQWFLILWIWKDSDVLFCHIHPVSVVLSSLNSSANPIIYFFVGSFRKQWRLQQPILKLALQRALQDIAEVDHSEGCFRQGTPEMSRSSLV

T2: TGR12-GFP (fused protein of human TGR12 and GFP, encoded by the DNA of SEQ ID NO: 31), stably expressed on … (human, UniProt Q96LB1 1-330)
T2 sequence: T1 sequence

T3: human TGR12 (untagged) (human, UniProt Q96LB1 1-330)
T3 sequence: T1 sequence

B1: human PACAP38 (pituitary adenylate cyclase activating polypeptide 38) (peptide, UniProt P18509 132-169, looked up)
peptide: HSDGIFTDSYSRYRKQMAVKKYLAAVLGKRYKQRVKNK
modifications: not fully specified; ends and bridges not checked
notes: domain: PACAP-38
B2: human PACAP27 (pituitary adenylate cyclase activating polypeptide 27) (peptide, UniProt P18509 132-158, looked up)
peptide: HSDGIFTDSYSRYRKQMAVKKYLAAVL
modifications: not fully specified; ends and bridges not checked
notes: domain: PACAP-27

Legend:
[1] = molecular target: T1, TGR12-GFP (fused protein of human TGR12 …); test: competition with 200 pM [125I]-rCST14 (Y0) on CHO-TGR12GFP cells, Hill plot
Method: The binding assay using CHO-TGR12GFP was performed as follows. […] After incubation overnight, the cells were washed 3 times with ice-chilled assay buffer (MEM-α, 20 mM HEPES (pH 7.4), 0.05% BSA) and 250 μL of the assay buffer was added thereto. […] After washing 3 times with 500 μL of the assay buffer, the cells were lysed in 250 μL of 0.5N NaOH and the lysate was recovered for measurement of the radioactivity.
Based on the above, non-specific binding was estimated as the activity of 10 μM rat cortistatin-14 and the IC₅₀ value of each peptide was obtained from Hill plot analysis.

[2] = molecular target: T2, TGR12-GFP (fused protein of human TGR12 …); test: cell-based or functional assay
human TGR12 (untagged) = molecular target: T3, human TGR12 (untagged); test: cell-based or functional assay

Binder | IC50 [1] [nM] | EC50 in the calcium increasing effect on CHO-TGR12 [2] [nM] | maximum activity in the calcium increasing effect (FLIPR), CHO-TGR12, at 0.3 nM [2] [fluorescence intensity] | maximum activity in the calcium increasing effect (FLIPR), CHO-TGR12, at 3 nM [2] [fluorescence intensity] | maximum activity in the calcium increasing effect (FLIPR), CHO-TGR12, at 30 nM [2] [fluorescence intensity] | maximum activity in the calcium increasing effect (FLIPR), CHO-TGR12, at 300 nM [2] [fluorescence intensity] | maximum activity in the calcium increasing effect (FLIPR), CHO-TGR12, at 3000 nM [2] [fluorescence intensity] | EC50 in the degranulation on LAD 2 (human TGR12 (untagged)) [nM] | degranulation of LAD 2 (beta-hexosaminidase release, % of total) at 10 nM (human TGR12 (untagged)) [%] | degranulation of LAD 2 (beta-hexosaminidase release, % of total) at 30 nM (human TGR12 (untagged)) [%] | degranulation of LAD 2 (beta-hexosaminidase release, % of total) at 100 nM (human TGR12 (untagged)) [%] | degranulation of LAD 2 (beta-hexosaminidase release, % of total) at 300 nM (human TGR12 (untagged)) [%] | degranulation of LAD 2 (beta-hexosaminidase release, % of total) at 1 µM (human TGR12 (untagged)) [%] | degranulation of LAD 2 (beta-hexosaminidase release, % of total) at 3 µM (human TGR12 (untagged)) [%] | maximum activity in the calcium increasing effect (FLIPR), RBL2H3-TGR12, at 1 nM (human TGR12 (untagged)) [fluorescence intensity] | maximum activity in the calcium increasing effect (FLIPR), RBL2H3-TGR12, at 10 nM (human TGR12 (untagged)) [fluorescence intensity] | maximum activity in the calcium increasing effect (FLIPR), RBL2H3-TGR12, at 100 nM (human TGR12 (untagged)) [fluorescence intensity] | maximum activity in the calcium increasing effect (FLIPR), RBL2H3-TGR12, at 1 µM (human TGR12 (untagged)) [fluorescence intensity] | maximum activity in the calcium increasing effect (FLIPR), RBL2H3-TGR12, at 10 µM (human TGR12 (untagged)) [fluorescence intensity]
B1 | 47 | ~161 | 287 | 410 | 195 | 23000 | 23300 | ~51 | 7.4 | 24.8 | 49.4 | 65.8 | 68.9 | 63.3 |  |  |  |  | 
B2 | 264 | ~93 | 48 | 58 | 939 | 23000 | 23700 | ~51 | 2.6 | 19.6 | 59.4 | 71.1 |  | 69.1 | 40 | 29 | 5300 | 11500 | 12700
